Experimental data: patent US20110086806A1 (published 2011)

T1: recombinant human IL-23R/Fc chimera (R&D Systems) (human, UniProt Q5VWK5 24-355)
T1 construct: Bought; also called rhIL23RFc
T1 sequence (looked up): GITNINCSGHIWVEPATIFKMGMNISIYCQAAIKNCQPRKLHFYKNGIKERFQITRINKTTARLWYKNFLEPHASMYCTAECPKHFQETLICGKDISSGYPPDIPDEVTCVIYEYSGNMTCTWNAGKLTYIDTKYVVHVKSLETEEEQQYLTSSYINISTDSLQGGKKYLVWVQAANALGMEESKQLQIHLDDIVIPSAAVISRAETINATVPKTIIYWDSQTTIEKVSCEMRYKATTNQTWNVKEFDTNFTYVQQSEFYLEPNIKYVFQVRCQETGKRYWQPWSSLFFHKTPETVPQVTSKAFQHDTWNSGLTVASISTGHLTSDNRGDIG

T2: recombinant human IL-12Rβ2/Fc fusion protein (R&D Systems) (human, UniProt Q99665 24-622, limits assumed)
T2 construct: Bought; also called Il12Rb2
T2 sequence: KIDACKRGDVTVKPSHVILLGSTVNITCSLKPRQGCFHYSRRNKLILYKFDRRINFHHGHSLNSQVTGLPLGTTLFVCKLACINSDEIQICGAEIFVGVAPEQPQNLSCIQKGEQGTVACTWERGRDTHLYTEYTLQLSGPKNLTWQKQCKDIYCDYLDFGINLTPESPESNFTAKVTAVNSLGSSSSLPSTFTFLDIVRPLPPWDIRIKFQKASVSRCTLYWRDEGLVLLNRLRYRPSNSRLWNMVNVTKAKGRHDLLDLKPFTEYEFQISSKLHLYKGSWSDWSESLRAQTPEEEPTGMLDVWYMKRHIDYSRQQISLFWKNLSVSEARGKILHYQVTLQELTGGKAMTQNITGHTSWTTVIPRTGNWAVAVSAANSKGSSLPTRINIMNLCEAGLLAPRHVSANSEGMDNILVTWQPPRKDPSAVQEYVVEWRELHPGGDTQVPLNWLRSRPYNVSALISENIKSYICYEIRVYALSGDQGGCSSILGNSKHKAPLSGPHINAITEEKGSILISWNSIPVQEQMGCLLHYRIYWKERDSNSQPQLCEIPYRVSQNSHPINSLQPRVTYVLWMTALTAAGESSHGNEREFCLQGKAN


Tests used:
[1] = target: T1, recombinant human IL-23R/Fc chimera …; assay: competition ELISA vs IL-23
Description: Assays were performed generally as follows. Individual wells in Immulon HB2 plates were incubated overnight at 4° C. with 100 μL PBS containing 100 ng of an anti-human IgG Fc (R&D MAB 110 clone 97924). Plates were washed five times with PBS/0.05% Tween 20, and wells were incubated for 1.5 h at RT with 100 μL each of PBS containing 50 ng of recombinant human IL-23R/Fc. […] Competitor was included at a final concentration of 1 μg/mL. After incubation, plates were washed as described and wells were incubated for 40 min at RT with 100 μL each of PBS containing a 1:5000 dilution of streptavidin-HRP conjugate (Pierce catalog no. 21130). After washing, wells were incubated with 100 μL each of TMB (BioFX Lab catalog no. TMBH-1000-0) for up to 30 min at RT. Reactions were stopped with an equal volume of 0.2 M sulfuric acid.
A number of ATRIMER™ polypeptide complexes were tested in competition ELISA more extensively to determine IC50 values.

[2] = target: T1, recombinant human IL-23R/Fc chimera …; assay: SPR
Outline: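 Recombinant human IL-23R/Fc captured on anti-human IgG Fc CM5 surface (<200 RU); ATRIMER complexes at 1-500 nM injected at 30 μl/min, 3 min association and 5 min dissociation. Kinetic constants fitted from double-referenced sensorgrams.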

[3] = target: T1, recombinant human IL-23R/Fc chimera …; assay: competition ELISA vs IL-23; remark: listed apart in the source
[4] = target: T3, recombinant human IL-12Rβ1/Fc fusion protein (R&D Systems) (human, UniProt P42701 24-540, limits assumed); assay: SPR
T3 construct: Bought; also called Il12Rb1
Description: (§1) A Biacore 3000 biosensor (GE Healthcare) was used to evaluate the interaction of human IL-12Rβ1/Fc or IL-12Rβ2/Fc with IL-23R binding ATRIMER™ complexes. Immobilization of an anti-human IgG Fc antibody (GE Healthcare) to the CM5 chip (GE Healthcare) was performed using standard amine coupling chemistry, and this modified surface was used to capture recombinant human IL-12Rβ1/Fc or IL-12Rβ2/Fc fusion protein (R&D Systems). A low-density receptor surface, less than 200 RU, was used for all of the analyses. ATRIMER™ complex dilutions (100 nM) were injected over the IL-12R surface at 30 μl/min. Data collection was 3 minutes for the association and 5 minutes for dissociation. The anti-human IgG surface was regenerated with a 30s pulse of 3M magnesium chloride. All sensorgrams were double-referenced against an anti-human IgG Fc antibody surface as well as buffer injections.

[5] = target: T2, recombinant human IL-12Rβ2/Fc fusion …; assay: SPR
Description: as §1

Binder	IC50 [1] [nM]	Ka [2] [M⁻¹]	Kd [2] [nM]	koff [2] [s⁻¹]	kon [2] [M⁻¹ s⁻¹]	Ratio IC50 to 056-53.H4E IC50 [3]	binding result [4]	binding result [5]
001-69.4G8 ATRIMER complex (designed binder, not shown: C-terminal tag: His/Myc (pANA4) or HA-StrepII (pANA10)) EPPTQKPKKIVNAKKDVVNTKMFEELKSRLDTLAQEVALLKEQQALQTVCLKGTKVHMKCFLAFTQTKTFHEASEDCISRGGTLSTPQTGSENDALYEYLRQSVGNEAEIWLGLNGSRRSGVWVDMTGARIAYKNWETEITAQPDGGFGVFGENCAVLSGAANGKWFDKRCRDQLPYICQFGIV	1.4	1.35e+08	7.42	0.000805	109000	–	–	–
001-87.A9E ATRIMER complex (designed binder, Homotrimer of this chain (ATRIMER complex)., not shown: A possible extra N-terminal Ser from the ompA junction is left out) EPPTQKPKKIVNAKKDVVNTKMFEELKSRLDTLAQEVALLKEQQALQTVCLKGTKVHMKCFLAFTQTKTFHEASEDCISRGGTLSTPQTGSENDALYEYLRQSVGNEAEIWLGLNGSALTNTWVDMTGARIAYKNWETEITAQPDGGLGYWGENCAVLSGAANGKWFDKRCRDQLPYICQFGIV	2.6	5.21e+08	1.92	0.00033	172000	–	–	–
056-40.A3C ATRIMER complex (designed binder, Homotrimer of this chain (ATRIMER complex)., not shown: A possible extra N-terminal Ser from the ompA junction is left out) EPPTQKPKKIVNAKKDVVNTKMFEELKSRLDTLAQEVALLKEQQALQTVCLKGTKVHMKCFLAFTQTKTFHEASEDCISRGGTLSTPQTGSENDALYEYLRQSVGNEAEIWLGLNGSATTATWVDMTGARIAYKNWETEITAQPDGGFGYFGENCAVLSGAANGKWFDKRCRDQLPYICQFGIV	1.8	5.7e+08	1.75	0.000373	213000	–	–	–
056-45.F7F ATRIMER complex (designed binder, Homotrimer of this chain (ATRIMER complex)., not shown: A possible extra N-terminal Ser from the ompA junction is left out) EPPTQKPKKIVNAKKDVVNTKMFEELKSRLDTLAQEVALLKEQQALQTVCLKGTKVHMKCFLAFTQTKTFHEASEDCISRGGTLSTPQTGSENDALYEYLRQSVGNEAEIWLGLNGSATTDTWVDMTGARIAYKNWETEITAQPDGGFGYFGENCAVLSGAANGKWFDKRCRDQLPYICQFGIV	1.45	7.92e+08	1.26	0.000376	298000	–	–	–
056-53.H1G ATRIMER complex (designed binder, Homotrimer of this chain (ATRIMER complex)., not shown: A possible extra N-terminal Ser from the ompA junction is left out) EPPTQKPKKIVNAKKDVVNTKMFEELKSRLDTLAQEVALLKEQQALQTVCLKGTKVHMKCFLAFTQTKTFHEASEDCISRGGTLSTPQTGSENDALYEYLRQSVGNEAEIWLGLNSGHWRAVWVDMTGARIAYKNWETEITAQPDGGFGVFGENCAVLSGAANGKWFDKRCRDQLPYICQFGIV	3.75	1.95e+08	5.13	0.000489	95200	–	–	–
056-53.H7B ATRIMER complex (designed binder, non-covalent homotrimer of the one chain given, not shown: Also the single Ser the vector leaves after the ompA signal) EPPTQKPKKIVNAKKDVVNTKMFEELKSRLDTLAQEVALLKEQQALQTVCLKGTKVHMKCFLAFTQTKTFHEASEDCISRGGTLSTPQTGSENDALYEYLRQSVGNEAEIWLGLNAGRMGLVWVDMTGARIAYKNWETEITAQPDGGWGVFGENCAVLSGAANGKWFDKRCRDQLPYICQFGIV	0.9	1.8e+09	0.557	0.00024	431000	–	–	–
056-53.H7H ATRIMER complex (designed binder, Homotrimer of this chain (ATRIMER complex)., not shown: A possible extra N-terminal Ser from the ompA junction is left out) EPPTQKPKKIVNAKKDVVNTKMFEELKSRLDTLAQEVALLKEQQALQTVCLKGTKVHMKCFLAFTQTKTFHEASEDCISRGGTLSTPQTGSENDALYEYLRQSVGNEAEIWLGLNGSSVSDVWVDMTGARIAYKNWETEITAQPDGGFGYFGENCAVLSGAANGKWFDKRCRDQLPYICQFGIV	0.53	6.65e+08	1.5	0.000385	256000	–	–	–
101-51-1A4 ATRIMER complex (designed binder, Forms a homotrimer through the tetranectin coiled coil; one protomer is given., not shown: C-terminal tag: His/Myc (pANA4) or HA-StrepII (pANA10)) EPPTQKPKKIVNAKKDVVNTKMFEELKSRLDTLAQEVALLKEQQALQTVCLKGTKVHMKCFLAFTQTKTFHEASEDCISRGGTLSTPQTGSENDALYEYLRQSVGNEAEIWLGLNGSALTNTWVDMTGARIAYKNWERPALVQPRGGFGVFGENCAVLSGAANGKWFDKRCRDQLPYICQFGIV	–	2.58e+09	0.388	0.000395	1.02e+06	1	no binding (tested: 100 nM)	no binding (tested: 100 nM)
101-51-1A7 ATRIMER complex (designed binder, Forms a homotrimer through the tetranectin coiled coil; one protomer is given., not shown: C-terminal tag: His/Myc (pANA4) or HA-StrepII (pANA10)) EPPTQKPKKIVNAKKDVVNTKMFEELKSRLDTLAQEVALLKEQQALQTVCLKGTKVHMKCFLAFTQTKTFHEASEDCISRGGTLSTPQTGSENDALYEYLRQSVGNEAEIWLGLNGSALTNTWVDMTGARIAYKNWERPPLYQPGGGWGVFGENCAVLSGAANGKWFDKRCRDQLPYICQFGIV	–	2.24e+09	0.447	0.000187	419000	1	no binding (tested: 100 nM)	no binding (tested: 100 nM)
101-54-4B6 ATRIMER complex (designed binder) EPPTQKPKKIVNAKKDVVNTKMFEELKSRLDTLAQEVALLKEQQALQTVCLKGTKVHMKCFLAFTQTKTFHEASEDCISRGGTLSTPQTGSENDALYEYLRQSVGNEAEIWLGLNGSALTNTWVDMTGARIAYKNWEPPGPHHPMGGFGVFGENCAVLSGAANGKWFDKRCRDQLPYICQFGIV	–	1.76e+09	0.569	0.00039	687000	0.3	no binding (tested: 100 nM)	no binding (tested: 100 nM)
105-08-1A8 ATRIMER complex (designed binder) EPPTQKPKKIVNAKKDVVNTKMFEELKSRLDTLAQEVALLKEQQALQTVCLKGTKVHMKCFLAFTQTKTFHEASEDCISRGGTLSTPQTGSENDALYEYLRQSVGNEAEIWLGLNGSPRTNTWVDMTGARIAYKNWETEITAQPDGGFGVFGENCAVLSGAANGKWFDKRCRDQLPYICQFGIV	–	2.14e+09	0.467	0.000344	737000	1.6	no binding (tested: 100 nM)	no binding (tested: 100 nM)
H4E E137A ATRIMER complex (designed binder) EPPTQKPKKIVNAKKDVVNTKMFEELKSRLDTLAQEVALLKEQQALQTVCLKGTKVHMKCFLAFTQTKTFHEASEDCISRGGTLSTPQTGSENDALYEYLRQSVGNEAEIWLGLNGSALTNTWVDMTGARIAYKNWATEITAQPDGGFGVFGENCAVLSGAANGKWFDKRCRDQLPYICQFGIV	–	–	–	–	–	–	no binding (tested: 100 nM)	no binding (tested: 100 nM)
